The target of assay [1] is T1, IL-6R on HEK293-STAT3-Luc reporter cells (UniProt P08887 20-468, limits assumed).
T1 sequence (looked up): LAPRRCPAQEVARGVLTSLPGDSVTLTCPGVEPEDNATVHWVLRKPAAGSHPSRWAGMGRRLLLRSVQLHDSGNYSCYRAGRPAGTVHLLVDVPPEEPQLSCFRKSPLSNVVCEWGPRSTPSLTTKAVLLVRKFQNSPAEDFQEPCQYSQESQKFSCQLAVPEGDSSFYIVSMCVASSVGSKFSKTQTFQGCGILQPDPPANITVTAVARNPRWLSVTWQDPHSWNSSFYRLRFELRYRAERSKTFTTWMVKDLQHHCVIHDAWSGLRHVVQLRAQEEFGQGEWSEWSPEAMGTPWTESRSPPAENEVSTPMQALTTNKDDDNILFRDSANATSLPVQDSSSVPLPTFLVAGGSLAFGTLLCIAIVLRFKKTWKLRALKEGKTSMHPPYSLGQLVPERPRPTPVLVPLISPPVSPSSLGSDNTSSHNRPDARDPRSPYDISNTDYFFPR
Description: cell-based or functional assay.

Assay [2] deals with T1, IL-6R on HEK293-STAT3-Luc reporter cells. Description: cell-based or functional assay. This is another data set of the same source.

We go through one molecule from US20250333496A1 (Novo Nordisk, published 2025).

B1: Vobarilizumab anti-IL-6R domain SIA comparator (VHH)
VHH: EVQLVESGGGLVQPGGSLRLSCAASGSVFKINVMAWYRQAPGKGRELVAGIISGGSTSYADSVKGRFTISRDNAKNTLYLQMNSLRPEDTAVYYCAFITTESDYDLGRRYWGQGTLVTVSS
Regarding B1, in assay [1], the “IC50 (nM), STAT3-luc reporter gene assay” value was 0.114 nM; the “Relative IC50 to Polypeptide_29” value worked out at 2.6 fold; the “Relative IC50 to Reference Anti-IL6 Fab” value was found to be 2.9 fold. For the same molecule, in assay [2], the “IC 50 (nM), reporter gene assay, 0% HSA” value stood at 0.114 nM.
